Data taken from the DeepSol protein solubility set.

Assay: soluble on expression in E. coli; label from the status in PepcDB or PDB records

Sequence	soluble on expression in E. coli
MGSDKIHHHHHHENLYFQGMLNFTVGPVMSSEEVRAIGAEQVPYFRTTEFSSTMLENEKFMLEYAKAPEGSKAVFMTCSSTGSMEAVVMNCFTKKDKVLVIDGGSFGHRFVQLCEIHEIPYVALKLEHGKKLTKEKLYEYDNQNFTGLLVNVDETSTAVLYDTMMIGEFCKKNNMFFVCDCVSAFLADPFNMNECGADVMITGSQKVLACPPGISVIVLAPRGVERVEKSKVRTMYFDLKDALKNQERGQTPFTPAVGILLQINERLKEIKKHGGADAEVARIASQAADFRAKIKDLPFELVSESPANGVTSVHPTTANAYDIFLKLKDEYGIWICPNGGEMKDTIFRVGHIGALTHEDNTTLVNAFKDLQKRNLL	soluble
MGSGKPPLILASGSPRRKALLEALGYPIRVAVPGVEEEGLPLPPKALAQALARRKGEAVQGEWVLAADTVVDLDGEVLGKPKDPEENRLFLRRLSGRLHLVHTAFYLRTPKEVVEEVHTARVFFRPLSEEEIAWYVGSGEGLDKAGGYGAQGLGMALLERVEGDFYTVVGLPVSRVFALLWARGFRP	soluble
MGHHHHHHSHMEKNLLLTIESLYKNLRKANKAVDFTTVKFLLQDSRSLLHAFSTRSNYDGILPQTFAQVNNLLQTFAEVKTKLKPNSSENTVTKKQEGTSLKNSHNQEITVFSSSHLPQPSRHQEIWSILESVWITIYQNSTDVFQRLGSNSALTTSNIASFEEAFICLQKLMAAVRDILEGIQRILAPNSNYQDVETLYNFLIKYEVNKNVKFTAQEIYDCVSQTEYREKLTIGCRQLVEMEYTMQQCNASVYMEAKNRGWCEDMLNYRI	not soluble
MNTLFMHCRPGFEGEVCSEIADLAARLDVSGYAKARPDTACAEFICTEADGAERLMNGQRFDTLIFPRQWARGLFLDLPETDRISVILAQLSTFPTCGSLWLEVVDTNDGKELSNFCKKFEAPLRKALTQAGKLVDDPRKPRLLLTFKSGREVFLGLAEADNSAMWPMGIPRLKFPREAPSRSTLKLEEAWHHFIPRDQWDERLSGDMTGVDLGAAPGGWTYQLVRRGMLVTAIDNGPMAESLMDTGLVQHLMADGFTYKPRHPVDWMVCDIVEKPARNAALLETWLGEGLCREAVVNLKLPMKQRYAEVRRLLDRIEEGFQARGVRVSIGCKQLYHDREEVTCHLRRLDVAKAARK	not soluble
MELKILVTGGNVFVPGRLNAHFSTVVYLEHKDRRIIIDPGNLSSMDELEEKFSELGISPDDITDVLFTHVHLDHIFNSVLFENATFYVHEVYKTKNYLSFGTIVGRIYSKVISSWKNVVLLKGEESLFDEKVKVFHTPWHAREHLSFLLDTENAGRVLITGDITPNRLSYYDIIKGYGSVQVKNFLDRVGRIDLLVFPHDAPLKPEVKK	not soluble
MGSDKIHHHHHHMHVGIFADGGYEKGMGHVVRMKRLAEGLKQRCLITFYTNQDSEAFLHEEHWQVIVKPELQQHEFILREIKSKKLDLLLFDILGAPAELLKKIKTETDAKIVLFEEKNGKSIQYSDAVINGIYGDIRSRVYVQGNTRIYEGPDYLILHPAFQAAREDYTLKKDCRNILVALGGSDPKQLIFKVLAAADQVPDIKDKNMMFVMGSASPHQEAVRRRIEKKPQYKMIEQTNDMAGLMKQADAAIVAGGISLYEAICIGVPCLVLSQVEHQTATAKTFADQGAALDLGLGELVPDETLIYQMSRIMSSYPLRLSLHKGGRPLVDGKGIIRVTAILQDLYEQEI	not soluble
MDEEDPINPCFQTISMGGGYVSGEIYRSDFEINDDARCIITTQSSAKAYKTVDGKTSEQHTNITLGKNSILEYISDNVIVYEDGKFAQFNNFKMDSSATLIYTECFGPGSPHGSAYQYEKMYLNTKIYYDDKLVLFDNLKFQPRKNDESAFGIMDGYHYCGTMIVINQQVIEDDVIKIRDLVKEKYPDMDMIFGVSRMDIPGLGLRVLANTYYHVEKINAVAHDYFRRKLFNKKPLILRKPLEHHHHHH	not soluble
MAKDVKPTRKNLMQIEDRIELSERGHDTLEKKRDGLIMEFMDILDQAQDVREDLDGSYERAQRAINMARAMEGDVAVRGAAAALKEHPELTTQSKNIMGVVVPQIESSKVRKSLDERGYGVMGTSARIDEAAEAYEELLENIILAAEVETAMKKMLEEIETTKRRVNALEFKLLPDLYDNQEYIEQKLEEQEREEIFRMKKIKAKKEEEEDALAAEEEAEEEPEAVTADDAAALEHHHHHH	soluble
MSIKILKPGLFSTIQDIGRLGYQDLGFSEAGALDYYSLSIAQKLIGNHGPAIEYTLVGPNIEFLTDNTFAIVGGDSEPKLNGNKIDLLTVYHVRNGDQLDIGQITEGARGYIVFGHPLKINKVAQSYSTHVRSGMGGFKGRALKKYDVIATQVNHNYKTNLGKTIDFSSIPDNNYIHVIEGPQINEFDEETIAKFVNSDFKISDQSDRMGYRLKGNTVAPKNSADIISEPVALGSIQVPNDGNPIILLNDKQTIGGYTKIATVTQLDLRKLAQMKPGDIIQFKWITVEEASKKLKEFNTKFEQLLKRFDEQPLFNLNQLRHTSNKIAEIIKEDRLEHHHHHH	not soluble
MGHHHHHHSHMKSQGQHWYSSSDKNCKVSFREKLLIIDSNLGVQDVENLKFLCIGLVPNKKLEKSSSASDVFEHLLAEDLLSEEDPFFLAELLYIIRQKKLLQHLNCTKEEVERLLPTRQRVSLFRNLLYELSEGIDSENLKDMIFLLKDSLPKTEMTSLSFLAFLEKQGKIDEDNLTCLEDLCKTVVPKLLRNIEKYKREKAIQIVTPPVDKEAESYQGEEELVSQTDVKTFLEALPQESWQNKHAGSNGNRATNGAPSLVSRGMQGASANTLNSETSTKRAAVYRMNRNHRGLCVIVNNHSFTSLKDRQGTHKDAEILSHVFQWLGFTVHIHNNVTKVEMEMVLQKQKCNPAHADGDCFVFCILTHGRFGAVYSSDEALIPIREIMSHFTALQCPRLAEKPKLFFIQACQGEEIQPSVSIEADALNPEQ	not soluble
MGSSHHHHHHSSGLVPRGSHMAADNRVQMRTTINNESPLLLSPLYGNDNGNGLWWGNTLKGAWEAIPEDVKPYAAIELHPAKVCKPTSCIPRDTKELREWYVKMLEEAQSLNIPVFLVIMSAGERNTVPPEWLDEQFQKYSVLKGVLNIANYWIYNNQLAPHSAKYLEVCAKYGAHFIWHDHEKWFWETIMNDPTFFEASQKYHKNLVLATKNTPIRDDAGTDSIVSGFWLSGLCDNWGSSTDTWKWWEKHYTNTFETGRARDMRSYASEPESMIAMEMMNVYTGGGTVYNFECAAYTFMTNDVPTPAFTKGIIPFFRHAIQNPAPSKEEVVNRTKAVFWNGEGRISSLNGFYQGLYSNDETMPLYNNGRYHILPVIHEKIDKEKISSIFPNAKILTKNSEELSSKVNYLNSLYPKLYEGDGYAQRVGNSWYIYNSNANINKNQQVMLPMYTNNTKSLSLDLTPHTYAVVKENPNNLHILLNNYRTDKTAMWALSGNFDASKSWKKEELELANWISKNYSINPVDNDFRTTTLTLKGHTGHKPQINISGDKNHYTYTENWDENTHVYTITVNHNGMVEMKI	soluble
GPGSMRAEKVTVSPAGEGAAPLFVFGYGSILWKQQFEYLRALPCCVHGYKRVFYQGSTDHRGVPARPGRVVTLLTCGDPEAWVGGVAFELPVEEEKREKILAQLDDRESGGYEREEVTLYDIKTHERLHLPPGAVCLCYRATEDNPEYLGEAKDEAIAEQILSCEGLSGPNSEYLFKLAEALRKLESADQHVFAVETAALHIMKAQNVPE	soluble
MNKLQSYFIASVLYVMTPHAFAQGTVTIYLPGEQQTLSVGPVENVVQLVTQPQLRDRLWWPGALLTDSAAKAKALKDYQHVMAQLASWEAEADDDVAATIKSVRQQLLNLNITGRLPVKLDPDFVRVDENSNPPLVGDYTLYTVQRPVTITLLGAVSGAGQLPWQAGRSVTDYLQDHPRLAGADKNNVMVITPEGETVVAPVALWNKRHVEPPPGSQLWLGFSAHVLPEKYADLNDQIVSVLTQRVPD	not soluble
MPLYVIDKPITLHILTQLRDKYTDQINFRKNLVRLGRILGYEISNTLDYEIVEVETPLGVKTKGVDITDLNNIVIINILRAAVPLVEGLLKAFPKARQGVIGASRVEVDGKEVPKDMDVYIYYKKIPDIRAKVDNVIIADPMIATASTMLKVLEEVVKANPKRIYIVSIISSEYGVNKILSKYPFIYLFTVAIDPELNNKGYILPGLGDAGDRAFG	soluble
MDCRLGCGACCIAPSISSPIPGMPKGKPAGVRCVQLNDDNLCKLFGKPERPKVCHDFKPCPVVCGKTNQEALDNITELEQLTLEHHHHHH	soluble
SEISRQEFQRRRQALVEQMQPGSAALIFAAPEVTRSADSEYPYRQNSDFWYFTGFNEPEAVLVLIKSDDTHNHSVLFNRVRDLTAEIWFGRRLGQDAAPEKLGVDRALAFSEINQQLYQLLNGLDVVYHAQGEYAYADVIVNSALEKLRKGSRQNLTAPATMIDWRPVVHEMRLFKSPEEIAVLRRAGEITAMAHTRAMEKCRPGMFEYHLEGEIHHEFNRHGARYPSYNTIVGSGENGCILHYTENECEMRDGDLVLIDAGCEYKGYAGDITRTFPVNGKFTQAQREIYDIVLESLETSLRLYRPGTSILEVTGEVVRIMVSGLVKLGILKGDVDELIAQNAHRPFFMAGLSHWLGLDVHDVGVYGQDRSRILEPGMVLTVEPGLYIAPDAEVPEQYRGIGIRIEDDIVITETGNENLTASVVKKPEEIEALMVAARKQ	soluble
SLIHIAIVEDENKDRELLKEYLDRFQAEKGEPLFVHVYPDGEEFLESFSSGKFDILLLDIHMQYMNGMATAQEIRKSDENVLIIFITNLVQYAVQGYSVRAFDFIVKPVEYSVFAQKLYRATQRLNRTEG	soluble
MSLDFVIEMLGIRKEFSGFVANDNITLQLKQGEIHALLGENGAGKSTLMNVLFGLYEPDGGEIRVRGTKENINSPNKANELGIGMVHQHFMLVDKFTVAENIILGKEPSKLGVIEKKKAIEEIKEISDRYGLRVDPNAVVRDISIGMQQRVEILKTLYRGADILIFDEPTAVLTPQEIKELIQIMRSLIKEGKSIILITHKLKEIMDVCDRVTVIRRGKGMGTVNVPETTPQDLANLMVGREVVFTTEKIDAKPGKDVLEVKDLVVKESRGVESVRGLNLTVRAGEIVGIAGVDGNGQSELISAIAGLSKVTSGSILLNGEHIENKKPRKITEAGLGHIPEDRHKHGLVLEMSLGENIALQTYYKKPISSKGFLNHKAMYDFARELIEEYDVRASSEYVAAKSLSGGNQQKAIIAREIHRNPDFLIAAQPTRGLDVGAIEFIHRRLIEQRDNGKAVLLMSFELDEIMNVSDRIAVIYEGKIVAIVDPKETTEQELGLMMAGSSKQEAEMGEKEGHHHHHH	not soluble
MSLYVSKLFTSQQWRELKLISYVTENADAIGVKDKELSKALNISMLTLQTCLTNMQFMKEVGGITYKNGYITIWYHQHCGLQEVYQKALRHSQSFKLLETLFFRDFNSLEELAEELFVSLSTLKRLIKKTNAYLTHTFGITILTSPVQVSGDEHQIRLFYLKYFSEAYKISEWPFGEMLNLKNCERLLSLMIKEVDVRVNFTLFQHLKILSSVNLIRYYKGYSAVYDNKKTSHRFSQLIQSSLEIQDLSRLFYLKFGLYLDETTIAEMFSNHVNDQLEIGYAFDSIKQDSPTGCRKVTNWVHLLDELEIRLNLSVTNKYEVAVILHNTTVLKEEDITANYLFFDYKKSYLNFYKQEHPHLYKAFVAGVEKLMRSEKEPISKELTNQLIYAFFITWENSFLKVNQKDEKIRLLVIERSFNSVGNFLKKYIGEFFSITNFNELDALTIDLEEIEKQYDVIVTDVMVGKSDELEIFFFYKMIPEAIIDKLNCVFKHQLCRQEGHHHHHH	not soluble
